Experimental data from patent US20230272011A1 (AVACTA LIFE SCIENCES, published 2023).

Columns and labels:
human serum albumin [1] = target: T1, human serum albumin (human, UniProt P02768 25-609); assay: SPR (Biacore) binding response to HSA at pH 7.4, Affimer at 50 nM
T1 construct: mature; Bought protein; biotinylated in the Octet and HTRF assays; also called HSA; HuSA
From the text: Final clones were sequence-verified, produced from E. coli, and affinity purified as described in Example 3.

human serum albumin [2] = target: T1, human serum albumin; assay: SPR (Biacore), immobilised HSA, Affimer analyte
mouse serum albumin [3] = target: T2, mouse serum albumin (mouse, UniProt P07724 25-608); assay: binding ELISA on coated MSA, panel title 'Affimer binding to MSA, pH 7' (legend: pH 7.4)
T2 construct: also called MSA
T2 sequence (P07724 25-608 limits assumed): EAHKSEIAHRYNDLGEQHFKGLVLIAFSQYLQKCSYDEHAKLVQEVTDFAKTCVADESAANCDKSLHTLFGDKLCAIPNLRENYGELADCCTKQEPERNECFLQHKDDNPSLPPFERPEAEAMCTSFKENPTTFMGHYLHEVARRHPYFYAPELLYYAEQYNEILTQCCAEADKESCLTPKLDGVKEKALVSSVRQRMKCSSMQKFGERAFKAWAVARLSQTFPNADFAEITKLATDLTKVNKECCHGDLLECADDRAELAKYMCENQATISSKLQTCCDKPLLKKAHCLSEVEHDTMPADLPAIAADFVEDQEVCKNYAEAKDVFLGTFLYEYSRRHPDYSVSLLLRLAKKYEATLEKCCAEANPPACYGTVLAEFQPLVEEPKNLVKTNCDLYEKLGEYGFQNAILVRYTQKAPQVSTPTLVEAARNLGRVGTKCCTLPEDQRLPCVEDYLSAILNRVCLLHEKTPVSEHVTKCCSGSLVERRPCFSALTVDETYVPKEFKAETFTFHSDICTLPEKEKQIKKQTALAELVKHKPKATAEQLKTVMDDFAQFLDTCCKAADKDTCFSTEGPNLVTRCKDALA
Procedure: (§1) Human (Sigma-Aldrich); Cynomolgus and Mouse (Abcam); Equine (Abcam); Canine (Abcam); Mouse (Sigma-Aldrich); Rabbit (Sigma-Aldrich); Porcine (Sigma-Aldrich);, and Rat (Sigma-Aldrich) serum albumin were coated overnight on 96 well plates (Corning Costar) at 1 μg/ml in PBS at the appropriate pH (pH 6.0 or 7.4). Plates were saturated using 5% Casein (Sigma-Aldrich) buffer in PBS. […] Plates were then washed and AFFIMER® proteins were detected using a biotinylated polyclonal antibody anti-Cystatin (R&D System) for 90 minutes. After washing, streptavidin-HRP (Thermo Fisher Scientific) was added and incubated for 30 minutes.
Briefly, PD-1 was coated overnight on the plate at 1 μg/ml in carbonate buffer. Then plates were saturated using 5% Casein/PBS buffer. […] After saturation, the mix was added to the plates and incubated for 90 minutes. Plates were then washed and the detection polyclonal antibody, biotinylated anti-PD-L1, was added. After washing the plates, streptavidin-HRP was added for 30 minutes. After a final wash, development of the reaction was performed using TMB (Pierce) and the plates were read using a plate reader at 450 nm (FIG. 26C).

human serum albumin [4] = target: T1, human serum albumin; assay: SPR (Biacore), immobilised HSA, Affimer analyte; remark: listed apart in the source
Procedure: Affinities for mouse, human, and cynomolgus serum were also measured at pH 7.4 for four (4) AFFIMER® binders using surface plasmon resonance (SPR) (FIG. 5, Table 5). […] A concentration titration of AFFIMER® monomers was run as analyte at a flow rate of 30 μl/min or 60 μl/min. Fc2-1, Fc3-1 and Fc4-1 kinetic data was blank subtracted and fit to a 1:1 Langmuir binding model (BIAcore Evalution software; GE) to calculate KD values. […]

human serum albumin [5] = target: T1, human serum albumin; assay: BLI (Octet), biotinylated albumin on SA sensor, pH 6.0
Outline: (§2)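 Biotinylated albumin was loaded on streptavidin sensors at 1 μg/ml for 600 s in PBS-T (0.01% Tween 20) + 1% casein at pH 6.0 or 7.4, 25° C, 1000 rpm. Kinetics came from a 1:1 global fit with reference-sensor subtraction.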

mouse serum albumin [6] = target: T2, mouse serum albumin; assay: as above
Outline: as §2

cynomolgus serum albumin [7] = target: T3, cynomolgus serum albumin (cynomolgus); assay: as above
T3 construct: also called CSA; cyno serum albumin
T3 sequence (A2V9Z4 25-608): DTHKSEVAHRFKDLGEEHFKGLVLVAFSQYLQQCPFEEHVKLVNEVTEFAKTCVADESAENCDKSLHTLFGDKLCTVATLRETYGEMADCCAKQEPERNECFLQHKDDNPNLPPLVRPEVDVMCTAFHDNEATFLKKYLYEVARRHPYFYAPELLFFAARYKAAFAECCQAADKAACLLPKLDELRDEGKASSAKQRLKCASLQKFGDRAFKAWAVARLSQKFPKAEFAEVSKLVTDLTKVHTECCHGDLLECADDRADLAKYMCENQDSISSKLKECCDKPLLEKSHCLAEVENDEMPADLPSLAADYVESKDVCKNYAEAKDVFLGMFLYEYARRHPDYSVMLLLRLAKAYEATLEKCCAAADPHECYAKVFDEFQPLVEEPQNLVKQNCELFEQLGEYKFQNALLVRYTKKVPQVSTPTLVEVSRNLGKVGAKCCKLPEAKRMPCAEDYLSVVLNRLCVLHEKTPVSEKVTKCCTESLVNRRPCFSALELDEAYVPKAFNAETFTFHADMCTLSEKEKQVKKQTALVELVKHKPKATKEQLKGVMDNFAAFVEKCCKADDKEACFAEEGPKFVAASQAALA
Outline: as §2

mouse serum albumin [8] = target: T2, mouse serum albumin; assay: binding ELISA on coated albumin, pH 6.0, panel 'MSA Binding at pH 6.0'
Procedure: Briefly, ELISA was performed as follow:
as §1

cynomolgus serum albumin [9] = target: T3, cynomolgus serum albumin; assay: Octet biolayer interferometry, pH 6.0
Procedure: (§3) Biotinylated antigen was captured onto SA sensors at 1 μg/ml for 600 seconds in a buffer comprising PBS-T (0.01% Tween 20)+1% casein at either pH 6.0 or 7.4. Association was carried out for 300 seconds and dissociation for 600 seconds, and regeneration was performed using 10 mM glycine pH 1.5 (GE Healthcare) for 3×5 seconds. All steps were carried out at 1000 rpm and 25° C. Purified AFFIMER® polypeptide in two-fold serial dilutions was analyzed at a starting concentration of approximately 10× K_{D value}. Kinetics analyses were carried out using the Octet data analysis software, subtracting the reference sensor (loaded with antigen), aligning the Y-axis to baseline, and using inter-step correction to align association to dissociation. Savitzky-Golay filtering was applied and the data processed. Analysis of the data was carried out with a 1:1 model, global fit, Rₘₐₓ unlinked by sensor.
(§4) AFFIMER® polypeptides were incubated with AcTEV for 1 hour at 30° C. as recommend by the manufacturer (Invitrogen) and removal of cleaved His tag by binding NiNTA resin (Generon) and collecting the cleaved protein flow through. […] Pharmacokinetic profile of IV-injected His tag cleaved AFFIMER® protein compared to C-terminally His-tagged AFFIMER® protein was evaluated.

human serum albumin [10] = target: T1, human serum albumin; assay: Octet biolayer interferometry, biotinylated albumin on SA sensors, pH 7.4
Outline: as §2

mouse serum albumin [11] = target: T2, mouse serum albumin; assay: as above
Outline: as §2

cynomolgus serum albumin [12] = target: T3, cynomolgus serum albumin; assay: as above
Outline: as §2

human serum albumin [13] = target: T1, human serum albumin; assay: Octet biolayer interferometry, pH 7.4
Procedure: as §3, §4

mouse serum albumin [14] = target: T2, mouse serum albumin; assay: Octet biolayer interferometry, pH 7.4
Procedure: as §3, §4

cynomolgus serum albumin [15] = target: T3, cynomolgus serum albumin; assay: Octet biolayer interferometry, pH 7.4
Procedure: as §3, §4

human serum albumin [16] = target: T1, human serum albumin; assay: BLI (Octet), biotinylated albumin on SA sensor, pH 7.4
Outline: as §2

mouse serum albumin [17] = target: T2, mouse serum albumin; assay: as above
Outline: as §2

cynomolgus serum albumin [18] = target: T3, cynomolgus serum albumin; assay: as above
Outline: as §2

human serum albumin [19] = target: T1, human serum albumin; assay: binding ELISA on coated albumin, pH 6.0, panel 'HSA Binding at pH 6.0'

binding response (human serum albumin [1]): 36.8
Kd (human serum albumin [2]): 2.4 nM
koff (human serum albumin [2]): 0.00354 s⁻¹
kon (human serum albumin [2]): 1.48e+06 M⁻¹ s⁻¹
EC50 (read off the curve) (mouse serum albumin [3]): ~6 nM
Kd (human serum albumin [4]): 5.13 nM
koff (human serum albumin [4]): 0.00435 s⁻¹
kon (human serum albumin [4]): 848000 M⁻¹ s⁻¹
Kd (human serum albumin [5]): 7.1 nM
Kd (mouse serum albumin [6]): 95.2 nM
Kd (cynomolgus serum albumin [7]): 105 nM
EC50 (read off the curve) (mouse serum albumin [8]): ~0.7 nM
Kd (cynomolgus serum albumin [9]): 220 nM
koff (human serum albumin [10]): 0.00198 s⁻¹
kon (human serum albumin [10]): 379000 M⁻¹ s⁻¹
koff (mouse serum albumin [11]): 0.0318 s⁻¹
kon (mouse serum albumin [11]): 663000 M⁻¹ s⁻¹
koff (cynomolgus serum albumin [12]): 0.0177 s⁻¹
kon (cynomolgus serum albumin [12]): 248000 M⁻¹ s⁻¹
Kd (human serum albumin [13]): 7.74 nM
Kd (mouse serum albumin [14]): 82 nM
Kd (cynomolgus serum albumin [15]): 209 nM
Kd (human serum albumin [16]): 5.2 nM
Kd (mouse serum albumin [17]): 47.9 nM
Kd (cynomolgus serum albumin [18]): 71.5 nM
EC50 (read off the curve) (human serum albumin [19]): ~0.04 nM
B1: HSA-41 (designed binder)
chain: MIPRGLSEAKPATPEIQEIVDKVKPQLEEKTNETYGKLEAVQYKTQVLANFFQRRWPGSTNYYIKVRAGDNKYMHLKVFNGPWKFRNTDRGADRVLTGYQVDKNKDDELTGFHHHHHH
notes: also called HSA-41 parent; HSA-41 AH parent
